Measured values: paper PMC6937325, “Tuning PFKFB3 Bisphosphatase Activity Through Allosteric Interference” (Scientific Reports, 2019)
Square brackets hold non-standard residues; d marks the D form. Ends that are not written are not given here.

B1: peptide 6 (wGy) (peptide)
chain: [dW]-Gly-[dY]
B2: peptide 5 (SFLLR-CONH2) (peptide)
peptide: SFLLR-NH2
notes: printed as SFLLR-CONH2; picked by virtual screening of ZINC libraries; also called compound 5; source: synthetic peptide
B3: peptide 4 (YSGFLT) (peptide)
peptide: YSGFLT
notes: printed as YSGFLT; picked by virtual screening of ZINC libraries; also called compound 4; source: synthetic peptide

What was measured:
[1] = target: T1, human inducible phospho-fructokinase bisphosphatase isoform 3, PFKFB3 (human, UniProt Q16875 1-520, RED-NHS label); test: MST; Nanotemper microscale thermophoresis; compound in MST buffer mixed 1:1 with 100 nM RED-NHS labeled recombinant PFKFB3, incubated 20 min at room temperature; conditions: both partners purified
T1 construct: human PFKFB3 (inducible bifunctional enzyme), GenBank AF056320.1; Plasmid from Prof; Yong-Hwan Lee; also called 6-Phosphofructo-2-kinase/fructose-2,6-biphosphatase 3; human inducible bifunctional enzyme; not shown: His tag, N-terminal, cleaved
T1 sequence (Q16875 whole entry, canonical isoform): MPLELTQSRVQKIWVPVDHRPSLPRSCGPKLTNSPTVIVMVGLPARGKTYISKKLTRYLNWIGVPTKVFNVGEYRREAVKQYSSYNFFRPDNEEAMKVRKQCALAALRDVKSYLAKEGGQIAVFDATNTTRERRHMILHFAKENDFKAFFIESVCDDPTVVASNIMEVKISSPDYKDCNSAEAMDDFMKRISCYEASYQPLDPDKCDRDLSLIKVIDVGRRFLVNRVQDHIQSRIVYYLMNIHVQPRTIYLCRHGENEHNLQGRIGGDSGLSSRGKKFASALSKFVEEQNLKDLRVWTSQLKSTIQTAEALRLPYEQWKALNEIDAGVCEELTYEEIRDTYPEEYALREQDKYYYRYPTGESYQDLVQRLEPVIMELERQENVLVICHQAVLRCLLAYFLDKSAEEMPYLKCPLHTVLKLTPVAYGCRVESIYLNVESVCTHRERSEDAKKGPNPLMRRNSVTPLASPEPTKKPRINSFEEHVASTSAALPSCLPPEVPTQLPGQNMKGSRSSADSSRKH

[2] = target: T1, human inducible phospho-fructokinase …; test: as above; conditions: both partners purified; remark: listed apart in the source

Binder | Kd [1] | Kd [2]
B1 | 2.79 µM | 
B2 |  | 44.4 µM
B3 |  | 18.3 µM
